Data: paper PMC4466810 (2015)

Molecular target: T1, VEGF-A (VEGF165) (Homo sapiens, UniProt P15692)
T1 chain: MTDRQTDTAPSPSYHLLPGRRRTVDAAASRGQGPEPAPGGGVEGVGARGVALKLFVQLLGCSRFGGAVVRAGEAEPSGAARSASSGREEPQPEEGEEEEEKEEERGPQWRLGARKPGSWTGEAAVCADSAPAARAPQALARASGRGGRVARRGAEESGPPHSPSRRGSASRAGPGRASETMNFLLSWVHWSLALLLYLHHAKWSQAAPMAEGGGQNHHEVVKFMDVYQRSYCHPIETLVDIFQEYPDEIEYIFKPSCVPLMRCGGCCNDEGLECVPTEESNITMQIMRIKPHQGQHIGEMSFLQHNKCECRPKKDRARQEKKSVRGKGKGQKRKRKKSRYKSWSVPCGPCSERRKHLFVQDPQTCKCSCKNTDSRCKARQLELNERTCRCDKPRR
Experiment: equilibrium binding assay (ELISA of unbound blocker)

- Kd: 0.18 nM
B1: HB-002.1 (VEGFR1 D2-Fc fusion) 129-228 (protein)
chain: SDTGRPFVEMYSEIPEIIHMTEGRELVIPCRVTSPNITVTLKKFPLDTLIPDGKRIIWDSRKGFIISNATYKEIGLLTCEATVNGHLYKTNYLTHRQTNT
modifications: fused to human IgG1 Fc
